B1: TCERG1 (protein, UniProt O14776 1-1098, looked up)
Transcription elongation …: MAERGGDGGESERFNPGELRMAQQQALRFRGPAPPPNAVMRGPPPLMRPPPPFGMMRGPPPPPRPPFGRPPFDPNMPPMPPPGGIPPPMGPPHLQRPPFMPPPMSSMPPPPGMMFPPGMPPVTAPGTPALPPTEEIWVENKTPDGKVYYYNARTRESAWTKPDGVKVIQQSELTPMLAAQAQVQAQAQAQAQAQAQAQAQAQAQAQAQAQAQAQAQAQAQAQAQAQAQAQAQAQAQAQAQAQVQAQVQAQVQAQAVGASTPTTSSPAPAVSTSTSSSTPSSTTSTTTTATSVAQTVSTPTTQDQTPSSAVSVATPTVSVSTPAPTATPVQTVPQPHPQTLPPAVPHSVPQPTTAIPAFPPVMVPPFRVPLPGMPIPLPGVAMMQIVSCPYVKTVATTKTGVLPGMAPPIVPMIHPQVAIAASPATLAGATAVSEWTEYKTADGKTYYYNNRTLESTWEKPQELKEKEKLEEKIKEPIKEPSEEPLPMETEEEDPKEEPIKEIKEEPKEEEMTEEEKAAQKAKPVATAPIPGTPWCVVWTGDERVFFYNPTTRLSMWDRPDDLIGRADVDKIIQEPPHKKGMEELKKLRHPTPTMLSIQKWQFSMSAIKEEQELMEEINEDEPVKAKKRKRDDNKDIDSEKEAAMEAEIKAARERAIVPLEARMKQFKDMLLERGVSAFSTWEKELHKIVFDPRYLLLNPKERKQVFDQYVKTRAEEERREKKNKIMQAKEDFKKMMEEAKFNPRATFSEFAAKHAKDSRFKAIEKMKDREALFNEFVAAARKKEKEDSKTRGEKIKSDFFELLSNHHLDSQSRWSKVKDKVESDPRYKAVDSSSMREDLFKQYIEKIAKNLDSEKEKELERQARIEASLREREREVQKARSEQTKEIDREREQHKREEAIQNFKALLSDMVRSSDVSWSDTRRTLRKDHRWESGSLLEREEKEKLFNEHIEALTKKKREHFRQLLDETSAITLTSTWKEVKKIIKEDPRCIKFSSSDRKKQREFEEYIRDKYITAKADFRTLLKETKFITYRSKKLIQESDQHLKDVEKILQNDKRYLVLDCVPEERRKLIVAYVDDLDRRGPPPPPTASEPTRRSTK
B2: TCOF1 (protein, UniProt Q13428 1-1488, looked up)
Treacle protein: MAEARKRRELLPLIYHHLLRAGYVRAAREVKEQSGQKCFLAQPVTLLDIYTHWQQTSELGRKRKAEEDAALQAKKTRVSDPISTSESSEEEEEAEAETAKATPRLASTNSSVLGADLPSSMKEKAKAETEKAGKTGNSMPHPATGKTVANLLSGKSPRKSAEPSANTTLVSETEEEGSVPAFGAAAKPGMVSAGQADSSSEDTSSSSDETDVEGKPSVKPAQVKASSVSTKESPARKAAPAPGKVGDVTPQVKGGALPPAKRAKKPEEESESSEEGSESEEEAPAGTRSQVKASEKILQVRAASAPAKGTPGKGATPAPPGKAGAVASQTKAGKPEEDSESSSEESSDSEEETPAAKALLQAKASGKTSQVGAASAPAKESPRKGAAPAPPGKTGPAVAKAQAGKREEDSQSSSEESDSEEEAPAQAKPSGKAPQVRAASAPAKESPRKGAAPAPPRKTGPAAAQVQVGKQEEDSRSSSEESDSDREALAAMNAAQVKPLGKSPQVKPASTMGMGPLGKGAGPVPPGKVGPATPSAQVGKWEEDSESSSEESSDSSDGEVPTAVAPAQEKSLGNILQAKPTSSPAKGPPQKAGPVAVQVKAEKPMDNSESSEESSDSADSEEAPAAMTAAQAKPALKIPQTKACPKKTNTTASAKVAPVRVGTQAPRKAGTATSPAGSSPAVAGGTQRPAEDSSSSEESDSEEEKTGLAVTVGQAKSVGKGLQVKAASVPVKGSLGQGTAPVLPGKTGPTVTQVKAEKQEDSESSEEESDSEEAAASPAQVKTSVKKTQAKANPAAARAPSAKGTISAPGKVVTAAAQAKQRSPSKVKPPVRNPQNSTVLARGPASVPSVGKAVATAAQAQTGPEEDSGSSEEESDSEEEAETLAQVKPSGKTHQIRAALAPAKESPRKGAAPTPPGKTGPSAAQAGKQDDSGSSSEESDSDGEAPAAVTSAQVIKPPLIFVDPNRSPAGPAATPAQAQAASTPRKARASESTARSSSSESEDEDVIPATQCLTPGIRTNVVTMPTAHPRIAPKASMAGASSSKESSRISDGKKQEGPATQVSKKNPASLPLTQAALKVLAQKASEAQPPVARTQPSSGVDSAVGTLPATSPQSTSVQAKGTNKLRKPKLPEVQQATKAPESSDDSEDSSDSSSGSEEDGEGPQGAKSAHTLGPTPSRTETLVEETAAESSEDDVVAPSQSLLSGYMTPGLTPANSQASKATPKLDSSPSVSSTLAAKDDPDGKQEAKPQQAAGMLSPKTGGKEAASGTTPQKSRKPKKGAGNPQASTLALQSNITQCLLGQPWPLNEAQVQASVVKVLTELLEQERKKVVDTTKESSRKGWESRKRKLSGDQPAARTPRSKKKKKLGAGEGGEASVSPEKTSTTSKGKAKRDKASGDVKEKKGKGSLGSQGAKDEPEEELQKGMGTVEGGDQSNPKSKKEKKKSDKRKKDKEKKEKKKKAKKASTKDSESPSQKKKKKKKKTAEQTV
B3: ALKBH5 (protein, UniProt Q6P6C2 2-394, looked up)
RNA demethylase ALKBH5: AAASGYTDLREKLKSMTSRDNYKAGSREAAAAAAAAVAAAAAAAAAAEPYPVSGAKRKYQEDSDPERSDYEEQQLQKEEEARKVKSGIRQMRLFSQDECAKIEARIDEVVSRAEKGLYNEHTVDRAPLRNKYFFGEGYTYGAQLQKRGPGQERLYPPGDVDEIPEWVHQLVIQKLVEHRVIPEGFVNSAVINDYQPGGCIVSHVDPIHIFERPIVSVSFFSDSALCFGCKFQFKPIRVSEPVLSLPVRRGSVTVLSGYAADEITHCIRPQDIKERRAVIILRKTRLDAPRLETKSLSSSVLPPSYASDRLSGNNRDPALKPKRSHRKADPDAAHRPRILEMDKEENRRSVLLPTHRRRGSFSSENYWRKSYESSEDCSEAAGSPARKVKMRRH

System: 3×MBT domain of L3MBTL1
Experiment: Triple SILAC pull-down, 3xMBT/3xMBTD355N ratio (cytoplasmic, nuclear and chromatin fractions of 293T cells);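 also: proteins quantified with MaxQuant, requiring at least two unique peptides and quantification in both label directions, normalized to the mean of proteins from a digested loading control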
Assay type: binding, human
Conditions: SILAC ratio, pull-down 3xMBT vs 3xMBTD355N; experiment with UNC0638 in heavy SILAC media

Molecule | 3xMBT/D355N UNC Heavy [log base 2]
B1 | 2.34
B2 | 0.67
B3 | 1.96

Same assay, conditions: SILAC ratio, pull-down 3xMBT vs 3xMBTD355N; experiment with UNC0638 in light SILAC media

Molecule | 3xMBT/D355N UNC Light [log base 2]
B1 | 3.64
B2 | 3.27
B3 | 1.73

Molecular target: T1, G9a and GLP (Homo sapiens, UniProt Q96KQ7+Q9H9B1)
T1 sequence (Q96KQ7 2-1210 limits assumed): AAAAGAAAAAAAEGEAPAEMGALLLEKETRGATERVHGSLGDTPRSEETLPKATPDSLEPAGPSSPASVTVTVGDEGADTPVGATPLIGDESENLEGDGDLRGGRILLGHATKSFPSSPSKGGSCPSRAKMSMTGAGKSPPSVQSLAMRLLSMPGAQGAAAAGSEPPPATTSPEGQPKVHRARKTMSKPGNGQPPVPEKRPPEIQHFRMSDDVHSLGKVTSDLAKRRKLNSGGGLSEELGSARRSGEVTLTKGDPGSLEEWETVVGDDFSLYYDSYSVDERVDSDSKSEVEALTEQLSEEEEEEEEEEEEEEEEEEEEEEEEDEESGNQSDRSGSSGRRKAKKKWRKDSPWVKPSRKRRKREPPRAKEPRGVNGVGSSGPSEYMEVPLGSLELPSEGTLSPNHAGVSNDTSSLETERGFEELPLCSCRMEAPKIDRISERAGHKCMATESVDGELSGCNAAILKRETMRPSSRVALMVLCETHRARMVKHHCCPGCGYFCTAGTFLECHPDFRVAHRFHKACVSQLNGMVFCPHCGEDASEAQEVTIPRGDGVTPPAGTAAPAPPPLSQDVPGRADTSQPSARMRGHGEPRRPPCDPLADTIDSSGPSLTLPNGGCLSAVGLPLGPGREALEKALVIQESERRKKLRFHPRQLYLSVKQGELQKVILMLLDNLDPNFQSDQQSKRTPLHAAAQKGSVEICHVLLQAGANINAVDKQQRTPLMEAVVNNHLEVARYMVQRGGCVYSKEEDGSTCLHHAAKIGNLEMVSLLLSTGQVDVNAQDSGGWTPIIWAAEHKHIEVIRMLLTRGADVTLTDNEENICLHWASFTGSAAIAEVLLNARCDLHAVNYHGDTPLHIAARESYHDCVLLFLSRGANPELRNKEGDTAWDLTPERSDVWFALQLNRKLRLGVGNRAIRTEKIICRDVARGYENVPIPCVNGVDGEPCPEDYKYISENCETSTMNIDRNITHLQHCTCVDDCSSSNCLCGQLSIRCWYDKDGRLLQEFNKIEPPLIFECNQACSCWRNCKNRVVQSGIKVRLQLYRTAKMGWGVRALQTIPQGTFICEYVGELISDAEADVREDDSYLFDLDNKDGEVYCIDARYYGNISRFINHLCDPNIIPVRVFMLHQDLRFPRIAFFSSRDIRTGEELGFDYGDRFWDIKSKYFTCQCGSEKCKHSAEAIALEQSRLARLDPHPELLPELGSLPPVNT
T1 sequence (Q9H9B1 2-1298 limits assumed): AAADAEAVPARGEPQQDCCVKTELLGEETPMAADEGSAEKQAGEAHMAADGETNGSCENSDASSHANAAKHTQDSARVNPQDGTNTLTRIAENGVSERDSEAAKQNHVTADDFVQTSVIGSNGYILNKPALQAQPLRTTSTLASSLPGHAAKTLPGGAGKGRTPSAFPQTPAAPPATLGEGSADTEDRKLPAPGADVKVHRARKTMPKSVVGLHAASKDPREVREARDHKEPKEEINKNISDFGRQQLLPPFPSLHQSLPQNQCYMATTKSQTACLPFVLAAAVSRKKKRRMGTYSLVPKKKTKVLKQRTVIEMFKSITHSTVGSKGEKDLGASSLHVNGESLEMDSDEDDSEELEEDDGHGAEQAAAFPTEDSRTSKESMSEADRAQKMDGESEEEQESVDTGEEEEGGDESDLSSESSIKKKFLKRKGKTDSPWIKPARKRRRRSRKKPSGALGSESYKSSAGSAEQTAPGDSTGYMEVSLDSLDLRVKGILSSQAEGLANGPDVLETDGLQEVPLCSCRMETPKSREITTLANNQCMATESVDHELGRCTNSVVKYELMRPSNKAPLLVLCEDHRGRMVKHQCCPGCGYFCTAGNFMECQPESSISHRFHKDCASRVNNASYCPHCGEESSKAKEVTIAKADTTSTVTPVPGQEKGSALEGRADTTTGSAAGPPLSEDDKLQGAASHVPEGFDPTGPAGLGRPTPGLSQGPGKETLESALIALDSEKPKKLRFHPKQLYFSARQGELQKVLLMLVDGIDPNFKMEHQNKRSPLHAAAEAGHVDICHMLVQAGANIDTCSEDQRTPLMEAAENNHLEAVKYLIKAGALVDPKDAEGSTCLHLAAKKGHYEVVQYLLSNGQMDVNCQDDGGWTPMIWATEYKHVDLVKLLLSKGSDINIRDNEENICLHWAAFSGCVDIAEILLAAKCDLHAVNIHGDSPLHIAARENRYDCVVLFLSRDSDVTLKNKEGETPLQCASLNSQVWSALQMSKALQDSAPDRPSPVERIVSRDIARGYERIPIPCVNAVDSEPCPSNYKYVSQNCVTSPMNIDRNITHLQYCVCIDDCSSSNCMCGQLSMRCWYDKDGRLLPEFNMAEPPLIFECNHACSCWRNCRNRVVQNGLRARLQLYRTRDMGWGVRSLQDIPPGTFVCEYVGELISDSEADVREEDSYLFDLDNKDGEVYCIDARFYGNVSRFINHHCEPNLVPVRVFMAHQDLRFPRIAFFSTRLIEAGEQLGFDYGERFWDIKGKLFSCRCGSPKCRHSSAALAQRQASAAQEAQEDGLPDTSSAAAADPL
Experiment: Triple SILAC pull-down after UNC0638 treatment of 293T cells, DMSO/UNC0638 ratio of protein captured by 3×MBT;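 also: mass spectrometry (Q-Exactive) SILAC quantitation, DMSO/UNC0638 ratio computed after subtracting 3×MBTD355N mutant pull-down background, only proteins with at least twofold 3×MBT over mutant signal considered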
Assay type: cell-based
Set-up: cells were treated for 24 hours with UNC0638 at 2.5 μM or DMSO vehicle control; endogenous in cells; host or cells: HEK 293T
Conditions: SILAC ratio DMSO/UNC0638 of protein pulled down with 3xMBT; UNC0638 in heavy SILAC media

Molecule | Relative to UNC0638 UNC Heavy [log base 2]
B1 | −0.10
B2 | −0.10
B3 | 0.29

Same assay, conditions: SILAC ratio DMSO/UNC0638 of protein pulled down with 3xMBT; UNC0638 in light SILAC media

Molecule | Relative to UNC0638 UNC Light [log base 2]
B1 | 0.37
B2 | 0.38
B3 | −0.01

Same assay, conditions: average of UNC Light and UNC Heavy experiments

Molecule | Relative to UNC0638 Average [log base 2]
B1 | 0.13
B2 | 0.14
B3 | 0.14

Reference: patent US20140274782A1, “AFFINITY REAGENTS AND METHODS FOR DETECTION, PURIFICATION, AND PROTEOMIC ANALYSIS OF METHYLATED PROTEINS” (The Board of Trustees of the Leland Stanford Junior …, priority 2013, published 2014)
